T1: sCD32B-Ig (human, UniProt P31994 43-217)
T1 construct: extracellular domain; also called CD32B (plate coat of the sandwich ELISA); not shown: Ig part not described
T1 sequence (looked up): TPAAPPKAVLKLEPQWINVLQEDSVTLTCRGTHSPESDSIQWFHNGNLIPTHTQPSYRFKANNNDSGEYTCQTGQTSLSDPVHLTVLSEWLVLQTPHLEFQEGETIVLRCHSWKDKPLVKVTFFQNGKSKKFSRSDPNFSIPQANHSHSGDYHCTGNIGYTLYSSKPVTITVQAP


Assays:
[1] = target: T1, sCD32B-Ig; assay: sandwich ELISA, CD32B coat, HRP-CD16 probe
[2] = target: T2, soluble CD16A (sCD16A) (human, UniProt P08637 17-208); assay: sandwich ELISA, CD32B coat, HRP-CD16 probe
T2 construct: extracellular domain; also called sCD16A-Biotin; HRP conjugated sCD16A
T2 sequence (P08637 17-208): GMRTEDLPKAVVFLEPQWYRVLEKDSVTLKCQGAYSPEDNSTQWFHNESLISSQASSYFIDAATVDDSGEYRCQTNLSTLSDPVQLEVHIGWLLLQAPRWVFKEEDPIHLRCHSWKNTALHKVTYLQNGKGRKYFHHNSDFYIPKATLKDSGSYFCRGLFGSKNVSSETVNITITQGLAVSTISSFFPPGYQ

| binding result [1] | binding result [2] | Binder |
| --- | --- | --- |
| binds | binds | diabody of constructs 9 and 1 (pMGX0719 + pMGX0669) (bispecific antibody, human IgG1, hinge/Fc at the N-terminus of the heavier chain; about 150 kDa species on Western blot; also called constructs 1 and 9; constructs 9+1) chain 1: not shown chain 2: EIVLTQSPDFQSVTPKEKVTFTCRTSQSIGTNIHWYQQKPDQSPKLLIKEVSESISGVPSRFSGSGSGTDFTLTINSLEAEDAATYYCQQSNTWPFTFGGGTKVEIKGGGSGGGGQVTLRESGPALVKPTQTLTLTCTFSGFSLSTSGMGVGWIRQPPGKALEWLAHIWWDDDKRYNPALKSRLTISKDTSKNQVVLTMTNMDPVDTATYYCAQINPAWFAYWGQGTLVTVSSLGGC |
| binds | binds | diabody of constructs 10 and 1 (pMGX0718 + pMGX0669) (bispecific antibody, Fc at the N-terminus of the heavier chain; at least two species of about 75 and 100 kDa on Western blot; also called constructs 1 and 10; constructs 10+1; copies: 2 + 2) chain 1: not shown chain 2: EIVLTQSPDFQSVTPKEKVTFTCRTSQSIGTNIHWYQQKPDQSPKLLIKEVSESISGVPSRFSGSGSGTDFTLTINSLEAEDAATYYCQQSNTWPFTFGGGTKVEIKGGGSGGGGQVTLRESGPALVKPTQTLTLTCTFSGFSLSTSGMGVGWIRQPPGKALEWLAHIWWDDDKRYNPALKSRLTISKDTSKNQVVLTMTNMDPVDTATYYCAQINPAWFAYWGQGTLVTVSSLGGC |
